Experiment [1] deals with T1, macrocyclic peptide CP14, fluorescein-labeled (CP14^F) (N-terminal N-chloroacetyl-D-tyrosine joined by a thioether to a cysteine; fluorescein on the side chain of the C-terminal lysine; C-terminal amide). In words: FP; outward-facing, Mg-ATP trapped, detergent-solubilized.
Experiment [2] has as its target T2, macrocyclic peptide CP12, fluorescein-labeled (CP12^F) (N-terminal N-chloroacetyl-D-tyrosine joined by a thioether to a cysteine; fluorescein on the side chain of the C-terminal lysine; C-terminal amide). The experiment is described as above.
Experiment [3] concerns the target T1, macrocyclic peptide CP14, …. The experiment is described as follows: FP; inward-facing, no Mg-ATP, detergent-solubilized.
In experiment [4] the target is T2, macrocyclic peptide CP12, …. The description is as above.

Where a chain is given by its changes, count along the chain named.

As a reminder, the Kd is the concentration at which binding is half-saturated.

B1: TmrA^E523QB (catalytically reduced variant of TmrAB) (complex)
chain 1: MTEDTYSKAFDRALFARILRYVWPYRLQVVLALLFLLVVTLAAAATPLFFKWAIDLALVPTEPRPLAERFHLLLWISLGFLAVRAVHFAATYGETYLIQWVGQRVLFDLRSDLFAKLMRLHPGFYDRNPVGRLMTRVTSDVDAINQFITGGLVGVIADLFTLVGLLGFMLFLSPKLTLVVLLVAPVLLAVTTWVRLGMRSAYREMRLRLARVNAALQENLSGVETIQLFVKEREREEKFDRLNRDLFRAWVEIIRWFALFFPVVGFLGDFAVASLVYYGGGEVVRGAVSLGLLVAFVDYTRQLFQPLQDLSDKFNLFQGAMASAERIFGVLDTEEELKDPEDPTPIRGFRGEVEFRDVWLAYTPKGVEPTEKDWVLKGVSFRVRPGEKVALVGATGAGKTSVVSLIARFYDPQRGCVFLDGVDVRRYRQEELRRHVGIVLQEPFLFSGTVLDNLRLFDPSVPPERVEEVARFLGAHEFILRLPKGYQTVLGERGAGLSTGEKQLLALVRALLASPDILLILDQATASVDSETEKRLQEALYKAMEGRTSLIIAHRLSTIRHVDRILVFRKGRLVEEGSHEELLAKGGYYAALYRLQFQEA
chain 2: MTGRSAAPLLRRLWPYVGRYRWRYLWAVLAGLVSIFFFVLTPYFLRLAVDAVQAGRGFGVYALAIVASAALSGLLSYAMRRLAVVASRQVEYDLRRDLLHHLLTLDRDFYHKHRVGDLMNRLNTDLSAVREMVGPGILMGSRLSFLVLLAFLSMYAVNARLAFYLTLILPGIFLAMRFLLRLIDRRYREAQEVFDRISTLAQEAFSGIRVVKGYALERRMVAWFQDLNRLYVEKSLALARVEGPLHALLGFLMGFAFLTVLWAGGAMVVRGELSVGELVQFNAYLAQLTWPILGLGWVMALYQRGLTSLRRLFELLDEKPAIRDEDPLPLALEDLSGEVRFEGVGLKRDGRWLLRGLTLTIPEGMTLGITGRTGSGKSLLAALVPRLLDPSEGRVYVGGHEARRIPLAVLRKAVGVAPQEPFLFSETILENIAFGLDEVDRERVEWAARLAGIHEEILAFPKGYETVLGERGITLSGGQRQRVALARALAKRPKILILDDALSAVDAETEARILQGLKTVLGKQTTLLISHRTAALRHADWIIVLDGGRIVEEGTHESLLQAGGLYAEMDRLQKEVEA
As to B1, the figures for the Kd in experiment [1] and in experiment [2] were 50 nM and 350 nM, respectively.

B2: TmrAB (heterodimeric ABC transport complex from Thermus thermophilus, wild type) (complex)
chain 1: B1 chain 1 with Q523E
chain 2: B1 chain 2
On to B2, for which the Kd in experiment [3] came out at 100 nM; in experiment [4], 140 nM.
